Experimental data published in the domain aggregation screens of Martell et al. (2025).

Experiment: soluble fraction after stress (log2 fold change); higher = more stays soluble; pooled small domains, quantitative proteomics
Settings: stress: 75 degC
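Also: 20 min heating vs room temperature control held 20 min.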

Row | Sequence | soluble fraction (log2)
1 | HMSRLMIVTPDGRIMDDVPEFGEVRTTTDVNGRVLVLDRNNVVIGFEMTPREYRREFGRNPF | -1.12
2 | HMSRQAPIGHRIRGRRKDIGMTQNALAKAAGISPSYLNLIEHNRRSIGGGLLMRIAAILDIHPHTL | -2.87
3 | HMSRTLLVYVTGAVRQPGVYELPEGSRFFDAVKAAGDVLPYAVMEDINMAEPLSDGMKIHIPLDPEQ | -0.687
4 | HMSRVFSPSELEIRHAQDVFQALEEAKRQGKGAVSLNGKMIDAPIVARAKLVLEAAAAIYGED | -0.379
5 | HMSRVHHGFNISIARNRKGLKQAALADMLGISQQRLSQLENQRVVKDEILEKVSEATGVSVEDLKTIE | -0.08
6 | HMSRVSVDGEEVNFEGEIPDDPSRIYELLMGALSEQSRVVVKFFVDGKDALLDEGFPSRYQMIEAESV | -0.0462
7 | HMSRYAFEGNVVRLNQKDFDSWKALFTNIDLVSELTRLDIEFTHDKPKNWFSTASAKLNYQNKNAY | -2.51
8 | HMSRYLLPYAFARTQQVLLEEKSGELTLWMHSGSNLGGISEVTRKYAVQHVTHEPMDALLNRISSAYAN | -3.34
9 | HMSSAVKRALAELPENWRMIVYYRVVEGLSYAEIAKVLDIPDGSVMSGLHRGKKMLRGLLLEYAQQEGYD | -1.79
10 | HMSSDDEAFKRELVGLIPHLRAFARTLTGDPTAADDLAQDAMMKAWDARASYQMGTNMKAWTFMILRNQFY | -2.53
11 | HMSSDKVWSFEASGKQLQASYVAFENETVYLRASEDGSLLQFPLTDFGMKDQLVVLELYELSAKINRSN | -0.934
12 | HMSSDLSNVVKIIDTLKHKKGALLPILHQIQREIGYIPLKTIDTIAKKLQQTPAEIHGVISFYHQFRTS | 0.0116
13 | HMSSEASALRGWLQTSQYQGSVTLFANALNVPLKTVEDWVYGRSKPSLQHWSQLYEATGLPEYQQ | -0.387
14 | HMSSFRDISGTVYVKASAANLRSEPNTSSLIVDTLYYGASLQRISTNDIWTKVKTGNGQIGFMDNSLFQT | -3.12
15 | HMSSGSLLTEREIEILAEMAKGLTNKAIGEKLFISVATVKTHILNIYRKLEVSSRVTAVNKAKQMRL | -2.43
16 | HMSSGTAYATDAVNVRSGPGTSYTVLGYLSRGEKVTITGTVSNGWTQIQLPGNRLGYVSSAYLSASYPS | -0.85
17 | HMSSHNIALDQDVVVTQLKGKVYLVAADGSQKQLAEGDILPKDAVLITPEGASFKGGNQTFTLS | 0.103
18 | HMSSIFTRIIAGEIPSYKVAEDENYYAFLDINPLTKGHTLVVPKMEVDYIFDLDDKTLAGMMLFAKKG | -0.129
19 | HMSSKIKYSEFITMLDKGEVESVVLKSDTLTITLKHGTGVAAQTKTTTLMEDLSELTKRLEKAGIKDFDK | -1.38
20 | HMSSLDTLTARETQILAEMAQGKNNAAIAAAVSVSERAVEKHTNSIFAKLGLSEEKDVNRRVMAVLLFLGR | -3.6
21 | HMSSLEQVYPNPVSSILKLNSFIKNYKILNATGHEVLKGSGNTINVGKLPSGSYFLITSENYSIKFIK | -1.08
22 | HMSSLSGVRRTLLDSLGMPPDASDEELADRREELRGSLDTAPQARRKWIEQQLARIDAITALDASG | 0.106
23 | HMSSPEAAEVQRLLKDGQHVQALKIIDESLARNPKDPQMRFRRGVALSMLDRKNEALAVFQKLVED | -0.182
24 | HMSSPRAIYSAIQKAVGEDMILYREDVQIILDKLDADLLVDDILEKMELDGTLVRQRDGTWLLL | -0.801
25 | HMSSQVFLGQKNSIAKYDLNENKPIWTKEIKGTPLILSTWKDMLLIQIQTWVSYTHMLVKQENGQTVWE | 0.288
26 | HMSSRLEIEITSKIDDLSHTWRAVGAKQPKGNIKSSLLPSGVKVGETFRVEADFLLDGIEIVSVLPP | -1.86
27 | HMSSSLDQLTVREREILAQVSRGLSNKAIARELGISHDTVKLHVRHILSKLGFSSRVEAAVFAIEHRIG | -2.35
28 | HMSSSMDAIAEIIRSIPRGDHLTAPEVYELAKQRGLKLSLSTVYRTLNKLKVVGDVITVSGDRGLRYESV | -0.336
29 | HMSSTPEPPQAVLDLVNLREQARAGKDWTQSDAFRQQIAALGWTVKDTKDGPVVSLSPTTTE | 0.392
30 | HMSSTSTMTVAEATIGRKVKHDKFGEGTIITVADVNGDKKLTIAFNQQGVKMLMLSMAKLEL | -3.36
